{
  "source": "paper PMC4067530",
  "about": "“Evidence for a DNA-relay mechanism in ParABS-mediated chromosome segregation” (eLife, 2014)",
  "key": {"ParA": {"biological_target": "T1, ParA (Caulobacter vibrioides, UniProt B8GW31, R195E)", "T1 construct": "full length, recombinant from E. coli BL21(DE3), pET24HT-ParA, His6 tag removed by TEV protease", "T1 sequence (B8GW31 whole entry R195E)": "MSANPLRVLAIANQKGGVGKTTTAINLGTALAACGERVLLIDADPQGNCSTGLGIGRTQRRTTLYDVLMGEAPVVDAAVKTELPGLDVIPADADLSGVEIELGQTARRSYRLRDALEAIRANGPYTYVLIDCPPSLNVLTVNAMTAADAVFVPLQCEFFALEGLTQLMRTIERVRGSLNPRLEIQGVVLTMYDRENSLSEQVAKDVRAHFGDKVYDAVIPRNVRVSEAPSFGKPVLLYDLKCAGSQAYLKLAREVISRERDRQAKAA", "experiment": "size exclusion chromatography (ATP-dependent dimerization)", "assay_type": "binding", "settings": "2.5 mM Mg-ATP, pH 7.5, 150 mM potassium glutamate; mutant does not bind DNA"}, "[1]": {"biological_target": "Caulobacter crescentus ParA (wild type) (C. crescentus)"}, "[2]": {"biological_target": "Caulobacter crescentus ParA (wild type) (C. crescentus)", "remark": "listed apart in the source"}, "[3]": {"biological_target": "Caulobacter crescentus ParB-His6 (wild type) (C. crescentus)", "experiment": "SEC-MALS; SEC-UV/LS/RI; purified His6-ParB on Superose 6 10/30 HR in 100 mM HEPES pH 7.4, 150 mM NaCl, 1 mM DTT, 0.3 ml/min; monomer to dimer"}, "[4]": {"biological_target": "Caulobacter crescentus ParA (wild type) (C. crescentus)", "experiment": "SEC; +ATP: ParA freed of ATP (EDTA, buffer exchange), then mixed with 2.5 mM Mg-ATP, 10 min at room temperature; 50 µl at approximately 50 µM on Superdex 75 10/300 GL in 25 mM Hepes/KOH pH 7.5, 150 mM KGlu, 5 mM MgSO4, 2 mM Mg-ATP, 0.1 mM EDTA, 1 mM DTT; monomer to dimer"}, "[5]": {"biological_target": "Caulobacter crescentus ParA R195E (DNA-binding deficient mutant) (C. crescentus)", "experiment": "SEC; +ATP: ParA freed of ATP (EDTA, buffer exchange), then mixed with 2.5 mM Mg-ATP, 10 min at room temperature; 50 µl at approximately 50 µM on Superdex 75 10/300 GL in 25 mM Hepes/KOH pH 7.5, 150 mM KGlu, 5 mM MgSO4, 2 mM Mg-ATP, 0.1 mM EDTA, 1 mM DTT; monomer to dimer"}, "[6]": {"substrate": "Nc1ncnc2c1ncn2[C@@H]1O[C@H](COP(=O)(O)OP(=O)(O)OP(=O)(O)O)[C@@H](O)[C@H]1O", "experiment": "NADH-coupled ATPase assay (pyruvate kinase/lactate dehydrogenase)", "assay_type": "biochemical, Caulobacter vibrioides", "settings": "10 µM ParA, 1.5 mg/ml salmon sperm DNA, no ParB, 10 mM MgSO4, 150 mM potassium glutamate, pH 7.4, 30 °C", "description": "NADH-coupled ATPase assay (pyruvate kinase/lactate dehydrogenase) on ParA | ATPase activity was dependent on the concentration of ATP (Figure 1E), resulting in a KM"}},
  "data": [
    {"molecule": "Nc1ncnc2c1ncn2[C@@H]1O[C@H](COP(=O)(O)OP(=O)(O)OP(=O)(O)O)[C@@H](O)[C@H]1O", "note": "[ATP]", "values": [
      {"measurement": "size exclusion chromatography (ATP-dependent dimerization)", "setting": "ParA", "value": "ParAR195E mutant (Figure 1C), which can still dimerize upon ATP binding (Figure 1A)"}
    ]},
    {"molecule": "Caulobacter crescentus ParB-His6 (wild type) (natural protein)", "values": [
      {"measurement": "ParA ATPase activity (NADH-coupled assay) with DNA, increase on adding ParB (60 µM)", "setting": "[1]", "value": 10, "unit": "fold"},
      {"measurement": "ParA (3 µM) ATPase activity against ParB concentration in the presence of DNA, Michaelis–Menten fit: apparent K (ParB)", "setting": "[2]", "value": 80, "unit": "µM"},
      {"measurement": "stoichiometry N", "setting": "[3]", "value": 2}
    ]},
    {"molecule": "Caulobacter crescentus ParA (wild type) (enzyme)", "values": [
      {"measurement": "stoichiometry N", "setting": "[4]", "value": 2}
    ]},
    {"molecule": "Caulobacter crescentus ParA R195E (DNA-binding deficient mutant) (enzyme)", "values": [
      {"measurement": "stoichiometry N", "setting": "[5]", "value": 2}
    ]},
    {"molecule": "ParA (Caulobacter vibrioides NA1000) (protein, full length, recombinant from E. coli BL21(DE3), pET24HT-ParA, His6 tag removed by TEV protease) MSANPLRVLAIANQKGGVGKTTTAINLGTALAACGERVLLIDADPQGNCSTGLGIGRTQRRTTLYDVLMGEAPVVDAAVKTELPGLDVIPADADLSGVEIELGQTARRSYRLRDALEAIRANGPYTYVLIDCPPSLNVLTVNAMTAADAVFVPLQCEFFALEGLTQLMRTIERVRGSLNPRLEIQGVVLTMYDRRNSLSEQVAKDVRAHFGDKVYDAVIPRNVRVSEAPSFGKPVLLYDLKCAGSQAYLKLAREVISRERDRQAKAA", "values": [
      {"measurement": "Km", "setting": "[6]", "value": 150, "unit": "µM"},
      {"measurement": "kcat", "setting": "[6]", "value": 0.00164, "unit": "s⁻¹"}
    ]}
  ]
}
